B1: THAP1; numbered along this chain (parent)
chain: MVQSCSAYGCKNRYDKDKPVSFHKFPLTRPSLCKEWEAAVRRKNFKPTKYSSICSEHFTPDCFKRECNNKLLKENAVPTIFLCTEPHDKKEDLLEPQEQLPPPPLPPPVSQVDAAIGLLMPPLQTPVNLSVFCDHNYTVEDTMHQRKRIHQLEQQVEKLRKKLKTAQQRCRRQERQLEKLKEVVHFQKEKDDVSERGYVILPNDYFEIVEVPA

The variants in the data set derive from B1. Kind of data set: THAP1 transcriptional activity (GFP+/GFP- enrichment relative to wild-type constructs) (ratio to WT); higher = more THAP1 activity (PSMB5 reporter activation). To be noted: with PSMB5 promoter-GFP reporter. A digest of the protocol:
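A site-saturation library of human THAP1 (residues 2–213, each changed to all 20 amino acids) was transduced by lentivirus at MOI ~0.3, in duplicate, into THAP1-knockout HEK-293T cells carrying mClover3 knocked in at endogenous PSMB5. After five days, BFP+ cells were sorted into GFP-dim and GFP-bright bins, and variants were counted by Illumina sequencing of genomic DNA amplicons. Activity is the replicate-mean bright/dim read fold change divided by the mean of wild-type synonymous constructs.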
In the case of MVQSCSAYGCKNRYDKDKPVSFHKFPLTRPSLCKEWEAAVRRKNFKPTKYSSICSEHFTPDCFKRECNNKLLKENAVPTIFLCTEPHDKKEDLLEPQEQLPPPPLPPPVSQVDAAIGLLMPPLQTPVNLSVFCDHNYTVEDTMHQRKRIHQLEQQLEKLRKKLKTAQQRCRRQERQLEKLKEVVHFQKEKDDVSERGYVILPNDYFEIVEVPA [V156L], the THAP1 transcriptional activity turned out to be 0.731.
Consider MVQSCSAYGCKNRYDKDKPVSFHKFPLTRPSLCKEWEAAVRRKNFKPTKYSSICSEHFTPDCFKRECNNKLLKENAVPTIFLCTEPHDKKEDLLEPQEQLPPPPLPPPVSQVDAAIGLLMPPLQTPVNLSVFCDHNYTVEDTMHQRKRIHQLEQQMEKLRKKLKTAQQRCRRQERQLEKLKEVVHFQKEKDDVSERGYVILPNDYFEIVEVPA [V156M], for which the THAP1 transcriptional activity is 0.475.
In the case of MVQSCSAYGCKNRYDKDKPVSFHKFPLTRPSLCKEWEAAVRRKNFKPTKYSSICSEHFTPDCFKRECNNKLLKENAVPTIFLCTEPHDKKEDLLEPQEQLPPPPLPPPVSQVDAAIGLLMPPLQTPVNLSVFCDHNYTVEDTMHQRKRIHQLEQQYEKLRKKLKTAQQRCRRQERQLEKLKEVVHFQKEKDDVSERGYVILPNDYFEIVEVPA [V156Y] it was 0.362; in that of MVQSCSAYGCKNRYDKDKPVSFHKFPLTRPSLCKEWEAAVRRKNFKPTKYSSICSEHFTPDCFKRECNNKLLKENAVPTIFLCTEPHDKKEDLLEPQEQLPPPPLPPPVSQVDAAIGLLMPPLQTPVNLSVFCDHNYTVEDTMHQRKRIHQLEQQTEKLRKKLKTAQQRCRRQERQLEKLKEVVHFQKEKDDVSERGYVILPNDYFEIVEVPA [V156T], 0.468; in that of MVQSCSAYGCKNRYDKDKPVSFHKFPLTRPSLCKEWEAAVRRKNFKPTKYSSICSEHFTPDCFKRECNNKLLKENAVPTIFLCTEPHDKKEDLLEPQEQLPPPPLPPPVSQVDAAIGLLMPPLQTPVNLSVFCDHNYTVEDTMHQRKRIHQLEQQIEKLRKKLKTAQQRCRRQERQLEKLKEVVHFQKEKDDVSERGYVILPNDYFEIVEVPA [V156I], 0.548.
As for MVQSCSAYGCKNRYDKDKPVSFHKFPLTRPSLCKEWEAAVRRKNFKPTKYSSICSEHFTPDCFKRECNNKLLKENAVPTIFLCTEPHDKKEDLLEPQEQLPPPPLPPPVSQVDAAIGLLMPPLQTPVNLSVFCDHNYTVEDTMHQRKRIHQLEQQSEKLRKKLKTAQQRCRRQERQLEKLKEVVHFQKEKDDVSERGYVILPNDYFEIVEVPA [V156S], the THAP1 transcriptional activity stood at 0.331.
For MVQSCSAYGCKNRYDKDKPVSFHKFPLTRPSLCKEWEAAVRRKNFKPTKYSSICSEHFTPDCFKRECNNKLLKENAVPTIFLCTEPHDKKEDLLEPQEQLPPPPLPPPVSQVDAAIGLLMPPLQTPVNLSVFCDHNYTVEDTMHQRKRIHQLEQQHEKLRKKLKTAQQRCRRQERQLEKLKEVVHFQKEKDDVSERGYVILPNDYFEIVEVPA [V156H], the THAP1 transcriptional activity was 0.201.
In the case of MVQSCSAYGCKNRYDKDKPVSFHKFPLTRPSLCKEWEAAVRRKNFKPTKYSSICSEHFTPDCFKRECNNKLLKENAVPTIFLCTEPHDKKEDLLEPQEQLPPPPLPPPVSQVDAAIGLLMPPLQTPVNLSVFCDHNYTVEDTMHQRKRIHQLEQQREKLRKKLKTAQQRCRRQERQLEKLKEVVHFQKEKDDVSERGYVILPNDYFEIVEVPA [V156R] it was 0.349.
With MVQSCSAYGCKNRYDKDKPVSFHKFPLTRPSLCKEWEAAVRRKNFKPTKYSSICSEHFTPDCFKRECNNKLLKENAVPTIFLCTEPHDKKEDLLEPQEQLPPPPLPPPVSQVDAAIGLLMPPLQTPVNLSVFCDHNYTVEDTMHQRKRIHQLEQQGEKLRKKLKTAQQRCRRQERQLEKLKEVVHFQKEKDDVSERGYVILPNDYFEIVEVPA [V156G] the figure was 0.25; with MVQSCSAYGCKNRYDKDKPVSFHKFPLTRPSLCKEWEAAVRRKNFKPTKYSSICSEHFTPDCFKRECNNKLLKENAVPTIFLCTEPHDKKEDLLEPQEQLPPPPLPPPVSQVDAAIGLLMPPLQTPVNLSVFCDHNYTVEDTMHQRKRIHQLEQQWEKLRKKLKTAQQRCRRQERQLEKLKEVVHFQKEKDDVSERGYVILPNDYFEIVEVPA [V156W], 0.284; with MVQSCSAYGCKNRYDKDKPVSFHKFPLTRPSLCKEWEAAVRRKNFKPTKYSSICSEHFTPDCFKRECNNKLLKENAVPTIFLCTEPHDKKEDLLEPQEQLPPPPLPPPVSQVDAAIGLLMPPLQTPVNLSVFCDHNYTVEDTMHQRKRIHQLEQQKEKLRKKLKTAQQRCRRQERQLEKLKEVVHFQKEKDDVSERGYVILPNDYFEIVEVPA [V156K], 0.343.
For the variant MVQSCSAYGCKNRYDKDKPVSFHKFPLTRPSLCKEWEAAVRRKNFKPTKYSSICSEHFTPDCFKRECNNKLLKENAVPTIFLCTEPHDKKEDLLEPQEQLPPPPLPPPVSQVDAAIGLLMPPLQTPVNLSVFCDHNYTVEDTMHQRKRIHQLEQQPEKLRKKLKTAQQRCRRQERQLEKLKEVVHFQKEKDDVSERGYVILPNDYFEIVEVPA [V156P], the THAP1 transcriptional activity is 0.0732.
Turning to MVQSCSAYGCKNRYDKDKPVSFHKFPLTRPSLCKEWEAAVRRKNFKPTKYSSICSEHFTPDCFKRECNNKLLKENAVPTIFLCTEPHDKKEDLLEPQEQLPPPPLPPPVSQVDAAIGLLMPPLQTPVNLSVFCDHNYTVEDTMHQRKRIHQLEQQQEKLRKKLKTAQQRCRRQERQLEKLKEVVHFQKEKDDVSERGYVILPNDYFEIVEVPA [V156Q], the THAP1 transcriptional activity came to 0.225.
In the case of MVQSCSAYGCKNRYDKDKPVSFHKFPLTRPSLCKEWEAAVRRKNFKPTKYSSICSEHFTPDCFKRECNNKLLKENAVPTIFLCTEPHDKKEDLLEPQEQLPPPPLPPPVSQVDAAIGLLMPPLQTPVNLSVFCDHNYTVEDTMHQRKRIHQLEQQVAKLRKKLKTAQQRCRRQERQLEKLKEVVHFQKEKDDVSERGYVILPNDYFEIVEVPA [E157A] it was 1.14.
